# According to patent US10087225B2, “Formulation of MK2 inhibitor peptides” (MOERAE MATRIX, INC., priority 2015, dated 2018):
# Columns and labels:
# Assay in all cases: Kinase Profiling Assay
# Format in all cases: biochemical
# Details in all cases: for % activity: 100 μM
# [1] = target: T1, ULK2(h) (Homo sapiens, UniProt Q8IYT8)
# T1 sequence (Q8IYT8 1-1036): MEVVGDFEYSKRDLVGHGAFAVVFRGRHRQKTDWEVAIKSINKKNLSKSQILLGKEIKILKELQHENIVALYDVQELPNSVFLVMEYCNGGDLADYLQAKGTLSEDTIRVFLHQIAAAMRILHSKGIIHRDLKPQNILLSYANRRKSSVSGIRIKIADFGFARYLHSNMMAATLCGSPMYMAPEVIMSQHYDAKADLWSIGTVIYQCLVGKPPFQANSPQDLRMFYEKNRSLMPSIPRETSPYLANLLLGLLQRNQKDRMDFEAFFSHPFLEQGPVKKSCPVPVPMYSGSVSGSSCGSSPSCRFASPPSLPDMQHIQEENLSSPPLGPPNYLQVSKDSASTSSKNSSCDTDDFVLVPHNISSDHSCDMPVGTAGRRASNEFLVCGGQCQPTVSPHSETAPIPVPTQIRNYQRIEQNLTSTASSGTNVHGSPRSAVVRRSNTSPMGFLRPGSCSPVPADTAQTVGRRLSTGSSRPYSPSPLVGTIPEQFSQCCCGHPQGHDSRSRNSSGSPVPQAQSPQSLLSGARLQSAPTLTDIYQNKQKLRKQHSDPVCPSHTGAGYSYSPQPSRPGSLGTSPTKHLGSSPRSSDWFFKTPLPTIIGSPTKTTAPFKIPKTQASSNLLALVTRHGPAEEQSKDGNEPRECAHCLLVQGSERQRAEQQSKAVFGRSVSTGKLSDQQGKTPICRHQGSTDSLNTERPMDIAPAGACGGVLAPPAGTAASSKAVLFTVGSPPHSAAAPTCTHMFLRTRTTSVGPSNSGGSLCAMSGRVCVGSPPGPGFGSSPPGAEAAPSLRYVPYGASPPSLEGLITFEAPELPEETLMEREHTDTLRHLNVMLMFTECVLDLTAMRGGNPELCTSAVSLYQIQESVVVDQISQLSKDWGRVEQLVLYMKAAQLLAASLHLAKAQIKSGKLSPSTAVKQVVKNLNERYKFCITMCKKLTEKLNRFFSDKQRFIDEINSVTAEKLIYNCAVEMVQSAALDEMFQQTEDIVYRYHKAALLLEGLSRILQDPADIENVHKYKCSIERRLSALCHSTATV
# [2] = target: T2, IRAK4(h) (Homo sapiens, UniProt Q9NWZ3)
# T2 sequence (Q9NWZ3 1-460): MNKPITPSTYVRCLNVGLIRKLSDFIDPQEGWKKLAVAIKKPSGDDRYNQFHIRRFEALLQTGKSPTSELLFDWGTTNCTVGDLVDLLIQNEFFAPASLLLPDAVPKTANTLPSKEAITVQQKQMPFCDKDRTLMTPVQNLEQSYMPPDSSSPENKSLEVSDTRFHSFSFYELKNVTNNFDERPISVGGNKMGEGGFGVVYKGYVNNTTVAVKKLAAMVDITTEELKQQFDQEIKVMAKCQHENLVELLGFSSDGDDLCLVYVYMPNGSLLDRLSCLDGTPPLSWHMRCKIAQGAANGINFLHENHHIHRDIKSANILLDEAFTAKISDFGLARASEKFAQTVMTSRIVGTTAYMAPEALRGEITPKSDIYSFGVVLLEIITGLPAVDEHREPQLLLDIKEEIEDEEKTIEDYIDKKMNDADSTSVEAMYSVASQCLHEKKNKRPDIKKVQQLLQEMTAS
# [3] = target: Met(D1246H)(h) (Homo sapiens, UniProt P08581, D1228H)
# [4] = target: Rsk4(h) (Homo sapiens, UniProt Q9UK32)
# Chain of Rsk4(h) (Q9UK32 whole entry): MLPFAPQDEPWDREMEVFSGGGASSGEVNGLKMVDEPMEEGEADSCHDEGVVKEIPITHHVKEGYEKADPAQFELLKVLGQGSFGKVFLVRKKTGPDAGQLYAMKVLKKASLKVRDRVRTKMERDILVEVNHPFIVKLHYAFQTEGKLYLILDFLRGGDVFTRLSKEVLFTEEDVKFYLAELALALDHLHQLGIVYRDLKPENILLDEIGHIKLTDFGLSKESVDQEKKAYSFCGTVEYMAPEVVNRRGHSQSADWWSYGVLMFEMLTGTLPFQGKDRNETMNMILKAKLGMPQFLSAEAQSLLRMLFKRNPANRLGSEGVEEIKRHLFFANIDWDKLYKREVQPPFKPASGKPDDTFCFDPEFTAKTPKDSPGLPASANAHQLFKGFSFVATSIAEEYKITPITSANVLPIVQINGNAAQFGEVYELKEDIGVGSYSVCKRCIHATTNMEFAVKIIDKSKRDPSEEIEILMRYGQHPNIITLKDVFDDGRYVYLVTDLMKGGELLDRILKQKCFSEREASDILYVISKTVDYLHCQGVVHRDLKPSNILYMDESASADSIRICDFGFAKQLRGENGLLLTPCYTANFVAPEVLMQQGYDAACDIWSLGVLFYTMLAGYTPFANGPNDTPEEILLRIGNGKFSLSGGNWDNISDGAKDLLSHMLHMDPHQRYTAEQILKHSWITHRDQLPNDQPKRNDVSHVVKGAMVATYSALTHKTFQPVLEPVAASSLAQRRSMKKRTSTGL
# [5] = target: IRR(h) (Homo sapiens, UniProt P14616)
# Chain of IRR(h) (P14616 27-1297): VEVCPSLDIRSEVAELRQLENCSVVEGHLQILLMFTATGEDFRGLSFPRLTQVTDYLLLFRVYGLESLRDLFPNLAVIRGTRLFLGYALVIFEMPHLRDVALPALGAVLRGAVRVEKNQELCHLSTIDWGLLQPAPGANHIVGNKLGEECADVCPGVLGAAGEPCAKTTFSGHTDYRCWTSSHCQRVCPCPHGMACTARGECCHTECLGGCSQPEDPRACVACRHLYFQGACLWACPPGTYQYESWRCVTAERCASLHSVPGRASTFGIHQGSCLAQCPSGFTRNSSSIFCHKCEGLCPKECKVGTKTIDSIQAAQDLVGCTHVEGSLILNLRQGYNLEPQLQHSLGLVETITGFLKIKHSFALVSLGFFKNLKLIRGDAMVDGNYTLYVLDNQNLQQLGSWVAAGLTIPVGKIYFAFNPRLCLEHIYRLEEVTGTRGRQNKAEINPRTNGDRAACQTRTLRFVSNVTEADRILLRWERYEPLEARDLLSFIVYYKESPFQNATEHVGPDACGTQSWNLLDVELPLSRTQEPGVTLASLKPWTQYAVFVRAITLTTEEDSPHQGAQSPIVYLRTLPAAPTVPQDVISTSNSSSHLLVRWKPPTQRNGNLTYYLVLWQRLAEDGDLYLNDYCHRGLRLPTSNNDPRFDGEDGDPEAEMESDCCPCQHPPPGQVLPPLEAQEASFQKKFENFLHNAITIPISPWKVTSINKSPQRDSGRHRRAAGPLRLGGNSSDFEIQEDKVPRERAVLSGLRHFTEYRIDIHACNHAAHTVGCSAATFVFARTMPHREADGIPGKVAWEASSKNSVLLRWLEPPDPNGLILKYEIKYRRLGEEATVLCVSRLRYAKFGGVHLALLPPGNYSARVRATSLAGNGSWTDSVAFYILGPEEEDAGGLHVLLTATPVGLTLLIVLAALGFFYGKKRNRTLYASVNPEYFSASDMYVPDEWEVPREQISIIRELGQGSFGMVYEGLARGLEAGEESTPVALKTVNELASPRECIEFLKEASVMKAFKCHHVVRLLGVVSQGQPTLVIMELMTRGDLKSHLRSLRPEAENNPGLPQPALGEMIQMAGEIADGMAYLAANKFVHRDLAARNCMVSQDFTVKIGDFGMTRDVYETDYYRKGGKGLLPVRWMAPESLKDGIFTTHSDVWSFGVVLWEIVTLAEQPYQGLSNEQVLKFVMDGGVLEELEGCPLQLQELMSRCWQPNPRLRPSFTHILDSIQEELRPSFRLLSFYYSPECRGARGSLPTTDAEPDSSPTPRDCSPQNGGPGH
# [6] = target: T3, Txk(h) (Homo sapiens, UniProt P42681)
# T3 sequence (P42681 1-527): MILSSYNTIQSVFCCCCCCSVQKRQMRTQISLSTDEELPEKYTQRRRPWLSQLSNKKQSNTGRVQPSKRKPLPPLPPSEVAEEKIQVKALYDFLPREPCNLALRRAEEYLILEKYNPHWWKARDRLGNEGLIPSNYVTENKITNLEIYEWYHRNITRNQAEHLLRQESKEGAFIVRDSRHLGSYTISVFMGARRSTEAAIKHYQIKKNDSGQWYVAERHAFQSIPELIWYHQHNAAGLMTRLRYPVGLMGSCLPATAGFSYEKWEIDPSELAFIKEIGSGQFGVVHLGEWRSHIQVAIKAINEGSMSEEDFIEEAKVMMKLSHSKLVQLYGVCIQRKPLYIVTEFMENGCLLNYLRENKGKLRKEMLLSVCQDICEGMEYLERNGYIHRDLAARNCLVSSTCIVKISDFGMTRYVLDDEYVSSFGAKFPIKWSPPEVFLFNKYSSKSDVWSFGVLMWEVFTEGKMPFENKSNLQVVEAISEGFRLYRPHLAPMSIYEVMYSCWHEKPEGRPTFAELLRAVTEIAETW
Substance,activity at 100 µM [1],activity at 100 µM [2],activity at 100 µM [3],activity at 100 µM [4],activity at 100 µM [5],activity at 100 µM [6],% activity [1],% activity [2],% activity [3],% activity [4],% activity [5],% activity [6]
H-YARAAARQARAKALARQLGVAA-OH [MMI-0100],123%,100%,99%,99%,85%,87%,–,–,–,–,–,–
HRRIKAWLKKIKALARQLGVAA (Mammalian) [MMI-0500],–,–,–,–,–,–,124%,3%,150%,29%,10%,10%
YARAAARQARAKALNRQLGVA (Mammalian) [MMI-0200],–,–,–,–,–,–,132%,110%,139%,125%,69%,98%
